Bounds are passed on as bounds.

Results on 61 molecules are retold here after patent US20170165337A1 (IMMATICS BIOTECHNOLOGIES, published 2017).

The target of the assay is T1, HLA-A*02:01 (human).
T1 construct: MHC class I monomer of the UV-ligand exchange assay; also called peptide-receptive MHC molecules; MHC class I
In words: UV peptide-exchange ELISA. The text has this:
Candidate peptides for T cell based therapies according to the present invention were further tested for their MHC binding capacity (affinity). The individual peptide-MHC complexes were produced by UV-ligand exchange, where a UV-sensitive peptide is cleaved upon UV-irradiation, and exchanged with the peptide of interest as analyzed. Only peptide candidates that can effectively bind and stabilize the peptide-receptive MHC molecules prevent dissociation of the MHC complexes. To determine the yield of the exchange reaction, an ELISA was performed based on the detection of the light chain (β2m) of stabilized MHC complexes. The assay was performed as generally described in Rodenko et al. (Rodenko et al., 2006).
96 well MAXISorp plates (NUNC) were coated over night with 2 ug/ml streptavidin in PBS at room temperature, washed 4× and blocked forl h at 37° C. in 2% BSA containing blocking buffer. Refolded HLA-A*02:01/MLA-001 monomers served as standards, covering the range of 15-500 ng/ml. Peptide-MHC monomers of the UV-exchange reaction were diluted 100 fold in blocking buffer. Samples were incubated for 1 h at 37° C., washed four times, incubated with 2 ug/ml HRP conjugated anti-β2m for 1 h at 37° C., washed again and detected with TMB solution that is stopped with […]. Absorption was measured at 450 nm. Candidate peptides that show a high exchange yield (preferably higher than 50%, most preferred higher than 75%) are generally preferred for a generation and production of antibodies or fragments thereof, and/or T cell receptors or fragments thereof, as they show sufficient avidity to the MHC molecules and prevent dissociation of the MHC complexes.

As to TLYDMLASI, the peptide exchange yield was in the range of 50 to 75%.
The figure for YLDLSNNRL is 50 to 75%; for ALPEVSVEA it is 50 to 75%.
The figure for LLKDGPEIGL is 20 to 50%; for SLMLEVPAL it is 50 to 75%.
The figure for YLDNVLAEL is at least 75%; for SLSFLVPSL it is 50 to 75%.
In turn, FTVPRVVAV yielded a peptide exchange yield of 50 to 75%.
In turn, YQLELHGIEL gave a peptide exchange yield of at least 75%.
The figure for SLLAELHVL is 50 to 75%; for YMFEEVPIVI it is at least 75%; for SLLAELHVLTV it is at least 75%.
Turning to SLQEEKLIYV, the peptide exchange yield fell in the range of 50 to 75%.
The figure for TLVPPAALISI is 50 to 75%.
ALPGGAAVAAV came in with a peptide exchange yield of at least 75%.
In turn, VLLGLEMTL registered a peptide exchange yield of 50 to 75%.
The figure for TLLLGLTEV is 50 to 75%; for QVMEKLAAV it is 50 to 75%.
SLFDQPLSII yielded a peptide exchange yield of 50 to 75%.
With YIFDGSDGGV, the peptide exchange yield was 50 to 75%.
The figure for TLDTSKLYV is 50 to 75%.
SLNIGDVQL came in with a peptide exchange yield of 50 to 75%.
The figure for YLTFLPAEV is 50 to 75%.
The figure for TLTFRVETV is 50 to 75%; for VMGDIPAAV it is 20 to 50%; for YLLDQSFVM it is at least 75%.
The molecule YIQEYLTLL came in with a peptide exchange yield of 50 to 75%.
The figure for SIVASLITV is 50 to 75%; for VVMGTVPRL it is 50 to 75%.
The figure for YLQEVPILTL is at least 75%.
The figure for VMDTHLVNI is at least 75%.
On to VLFFNVQEV, for which the peptide exchange yield fell in the range of 50 to 75%.
The figure for SLFDSAYGA is 50 to 75%.
The figure for VLAEQNIIPSA is 50 to 75%.
The figure for ALTKTNLQL is 50 to 75%.
Turning to SILETVATL, the peptide exchange yield lay within 50 to 75%.
The figure for VLLSVPGPPV is 50 to 75%.
The figure for TLDDDLDTV is 20 to 50%; for SMDDGMINV it is 50 to 75%; for SQLDISEPYKV it is 50 to 75%.
Molecule SVHKGFAFV yielded a peptide exchange yield of 50 to 75%.
The figure for VMDPTKILI is at least 75%.
The figure for SLPEAPLDV is 50 to 75%.
Regarding LLGEFSIKM, the peptide exchange yield lay in the range of 50 to 75%.
The figure for VMDDQRDLI is 20 to 50%.
YVDDVFLRV: the peptide exchange yield was at least 75%.
The figure for YLGGFALSV is at least 75%; for YLLLQTYVL it is 10 to 20%; for SMKDDLENV it is 20 to 50%.
The figure for SLIRILQTI is 50 to 75%.
The figure for VLDDRELLL is 50 to 75%; for SLDNGGYYI it is 50 to 75%.
With SLNIRDFTM, the peptide exchange yield is 50 to 75%.
Molecule VLAELPIIVV gave a peptide exchange yield of 50 to 75%.
The figure for VLSHNLYTV is 50 to 75%; for VMLEMTPEL it is 50 to 75%; for YLVELSSLL it is at least 75%.
The figure for VLLSIPFVSV is 50 to 75%; for TLDPNQVSL it is 20 to 50%.
Molecule VLMPTVYQQGV had a peptide exchange yield of 50 to 75%.
The figure for TVIENIHTI is 20 to 50%.
